# Test results from publication doi:10.1101/2024.10.16.618570 (bioRxiv, 2024).
# B1: BAK (BCL-2 homologous antagonist/killer), endogenous in mouse liver mitochondria (natural protein, UniProt O08734 1-209, looked up)
# chain: MASGQGPGPPKVGCDESPSPSEQQVAQDTEEVFRSYVFYLHQQEQETQGAAAPANPEMDNLPLEPNSILGQVGRQLALIGDDINRRYDTEFQNLLEQLQPTAGNAYELFTKIASSLFKSGISWGRVVALLGFGYRLALYVYQRGLTGFLGQVTCFLADIILHHYIARWIAQRGGWVAALNFRRDPILTVMVIFGVVLLGQFVVHRFFRS
# Target: the molecule itself
# Experiment: native gel or EMSA
protein,measurement,value
B1,stoichiometry N,2
